Tests used:
[1] = test system: peripheral blood mononuclear cells (PBMC) from anesthetized rabbits; assay: LPS-induced Factor X activation in rabbit PBMC; assay type: cell-based; details: rabbit PBMCs
Protocol: (§1) Peripheral blood mononuclear cells were incubated with LPS (1 mg/ml) to induce tissue factor expression and FX activation measured in the presence of FVII, FX and chromogenic substrate 52765.
(§2) The inhibitory activity on FX activation was assayed using peripheral blood mononuclear cells (PBMC) purified from normal human donors and anesthetized rabbits by standard methods. […] As expected, APT102 had no effect on PBMC pro-coagulant activity.

[2] = test system: human platelet-rich plasma (PRP); assay: ADP-induced human platelet aggregation in platelet-rich plasma; assay type: cell-based; details: ADP-activated, light transmission, 6 min
Protocol: FIGS. 1A and 1B show the effect of apyrase APT102 used as such and of a fusion protein thereof, APT402, on platelet aggregation in an ex vivo reaction mixture comprising human platelet-rich plasma (PRP) activated with 20 μM ADP. […] X axis is the assay time (6 min duration), Y axis is the light transmission. […] Arrows indicate addition of ADP and apyrases.
as §2

[3] = test system: thrombin generation in human platelet rich plasma; assay: Thrombin generation by calibrated automated thrombography (CAT) in ADP-activated human PRP; assay type: cell-based; details: 20 uM ADP-activated human platelets, equal molar concentrations
Protocol: Shown are thrombograms of nanomolar thrombin that were generated in human platelet rich plasma activated with […].
Thrombin generation in citrated human platelet rich plasma (PRP) was quantified by calibrated automated thrombography (CAT) using the Thrombinoscope system (Synapse), according to methods developed by Hemker et al. Aliquots of PRP were incubated with agents for 15 min at room temperature, and then for 5 min at 37° C. in wells of 96-well plates. Thrombin generation was initiated by addition of 0.5 pM tissue factor and CaCl2 to 16.7 mM and monitored in a microtiter plate fluorometer (Fluoroskan Ascent, Thermo Electron Corp., Vantaa, Finland). Thrombograms (nM thrombin generated vs. time) were generated using the Thrombinoscope software, as were key thrombin generation parameters: lag time to onset of thrombin generation (min), peak thrombin concentration (nM), time to peak thrombin (min), and endogenous thrombin potential (ETP; integrated area under the thrombogram curve).
The effects of APT102, annexin V, APT102+annexin V, and APT402 at equal molar concentrations on thrombin generation from 20 uM ADP-activated human platelets were compared using CAT assays (FIG. 3). […] These features were mimicked by APT402.

[4] = test system: peripheral blood mononuclear cells (PBMC) from normal human donors; assay: LPS-induced Factor X activation in human PBMC; assay type: cell-based; details: human PBMCs
Protocol: as §1, §2

[5] = test system: IVC fibrosis (collagen deposition); assay: Chronic murine electrolytic injury model (EIM) of DVT, fibrosis; assay type: in vivo; details: mice, 1.0 mg/kg ip bolus daily for 14 days
Description: In a chronic fibrotic study, mice were randomized and blinded into the following groups (n=5-12/group).
Collagen deposition was stained with Masson's trichrome 14 days post DVT induction.

B1: APT102: soluble apyrase, enhanced form of soluble CD39L3 R67G T69R (SEQ ID NO: 2) (protein)
chain: EVLPPGLKYGIVLDAGSSGTRVYVYQWPAEKENNTGVVSQTFKCSVKGSGISSYGNNPQDVPRAFEECMQKVKGQVPSHLHGSTPIHLGATAGMRLLRLQNETAANEVLESIQSYFKSQPFDFRGAQIISGQEEGVYGWITANYLMGNFLEKNLWHMWVHPHGVETTGALDLGGASTQISFVAGEKMDLNTSDIMQVSLYGYVYTLYTHSFQCYGRNEAEKKFLAMLLQNSPTKNHLTNPCYPRDYSISFTMGHVFDSLCTVDQRPESYNPNDVITFEGTGDPSLCKEKVASIFDFKACHDQETCSFDGVYQPKIKGPFVAFAGFYYTASALNLSGSFSLDTFNSSTWNFCSQNWSQLPLLLPKFDEVYARSYCFSANYIYHLFVNGYKFTEETWPQIHFEKEVGNSSIAWSLGYMLSLTNQIPAESPLIRLPIEPPV
[1]
  reduction in LPS-induced FX activation: no effect
[2]
  inhibition of ADP-induced human platelet aggregation: dose-dependently inhibits
[3]
  peak thrombin concentration: modest inhibitory effect
  time to peak thrombin: modest inhibitory effect
[4]
  reduction in LPS-induced FX activation: no effect
[5]
  deaths, increased bleeding or gross side effects: no deaths or increased bleeding or gross side effects
[5]; Masson's trichrome 14 days post DVT induction
  reduction of collagen deposition: 11%

From patent publication US20230119254A1, “SYNERGISTIC AND TARGETING COMPOSITIONS FOR TREATMENT OF ARTERIAL AND VENOUS THROMBOSIS” (AstraZeneca AB, priority 2020, published 2023)
